Test [1] has as its target HLA-B*18:01. The test is described as follows: IEDB peptide-MHC binding, purified MHC/competitive/radioactivity; filed as Kd, often an IC50 or EC50 that approximates it; ≥ and ≤ were set here for values at or beyond the usual limits of such assays.
Test [2] addresses HLA-B*40:01. Described as above.
Test [3] addresses HLA-B*40:02. Described as above.
The target in test [4] is HLA-B*44:02. Described as above.
Test [5] has as its target HLA-B*44:03. The description is as above.
In test [6] the target is HLA-B*45:01. The description is as above.
Test [7] concerns the target HLA-A*02:01. The test is described as follows: IEDB peptide-MHC binding, purified MHC/competitive/fluorescence; ≥ and ≤ were set here for values at or beyond the usual limits of such assays. The note with it: source organism: Sudan ebolavirus.
The target of test [8] is HLA-A*11:01. Described as above. The note with it: source organism: Sudan ebolavirus.
In test [9] the target is HLA-A*24:02. The test is described as above. Conditions: source organism: Sudan ebolavirus.
Test [10] concerns the target HLA-A*02:12. The test can be described thus: IEDB peptide-MHC binding, purified MHC/direct/fluorescence; filed as Kd, often an IC50 or EC50 that approximates it; ≥ and ≤ were set here for values at or beyond the usual limits of such assays.
In test [11] the target is HLA-A*03:01. Described as above. The note with it: source organism: Choclo virus.
The target of test [12] is HLA-B*58:01. Described as above. The note with it: source organism: Orthohantavirus andesense.
Test [13] addresses HLA-A*26:01. The test can be described thus: IEDB peptide-MHC binding, purified MHC/competitive/fluorescence; filed as Kd, often an IC50 or EC50 that approximates it; ≥ and ≤ were set here for values at or beyond the usual limits of such assays. The note with it: source organism: Choclo virus.
The target of test [14] is HLA-B*15:01. The test is described as above.
For test [15], the target named is HLA-B*15:17. The test is described as above. Conditions: source organism: Choclo virus.
For test [16], the target named is HLA-B*18:01. The test is described as above. Conditions: source organism: Choclo virus.
Test [17] addresses HLA-B*27:03. The test is described as above. The note with it: source organism: Choclo virus.
Test [18] concerns the target HLA-B*39:01. The test is described as above. Conditions: source organism: Choclo virus.
The target of test [19] is HLA-B*46:01. The description is as above. Conditions: source organism: Choclo virus.
Test [20] has as its target HLA-B*51:01. The description is as above. Conditions: source organism: Choclo virus.
The target of test [21] is HLA-B*57:01. Described as above. Conditions: source organism: Choclo virus.
The target of test [22] is HLA-A*03:01. The test is described as above.
The target of test [23] is HLA-A*02:03. The test can be described thus: IEDB peptide-MHC binding, purified MHC/direct/fluorescence; filed as Kd, often an IC50 or EC50 that approximates it; ≥ and ≤ were set here for values at or beyond the usual limits of such assays. Conditions: source organism: Mycobacterium tuberculosis str. Haarlem.
Test [24] addresses HLA-A*02:11. The description is as above.
The target of test [25] is HLA-A*69:01. The test is described as above. Conditions: source organism: Mycobacterium tuberculosis.
Test [26] has as its target HLA-A*01:01. The description is as above. Conditions: source organism: SARS-CoV1.
In test [27] the target is HLA-A*23:01. The test can be described thus: IEDB peptide-MHC binding, purified MHC/competitive/radioactivity; filed as Kd, often an IC50 or EC50 that approximates it; ≥ and ≤ were set here for values at or beyond the usual limits of such assays. Conditions: source organism: SARS coronavirus Tor2.
For test [28], the target named is HLA-A*24:02. The test is described as above. Conditions: source organism: SARS coronavirus Tor2.
Test [29] addresses HLA-A*26:01. The test is described as above. The note with it: source organism: SARS coronavirus Tor2.
Test [30] has as its target HLA-A*29:02. Described as above. The note with it: source organism: SARS coronavirus Tor2.
The target in test [31] is HLA-A*30:02. Described as above. Conditions: source organism: SARS coronavirus Tor2.
Setting [32] is: source organism: Mammarenavirus choriomeningitidis.
Where [33] appears, read: source organism: Mammarenavirus juninense.
[34] abbreviates: source organism: Mammarenavirus lassaense.
[35] abbreviates: source organism: Mycobacterium tuberculosis str. Haarlem.
The mark [36] stands for this setting: source organism: Yersinia pestis Antiqua.
Where [37] appears, read: source organism: SARS coronavirus Tor2.
Setting [38] is: source organism: Mammarenavirus brazilense.

Take ADYLSCSHF: the Kd (usually the free concentration of one partner at which half of the binding sites on the other are occupied at equilibrium, for simple one-to-one binding) in test [1] (setting [32]) is at least 77.5 µM; in [2] (setting [32]) it was at least 47 µM; in test [3] (setting [32]), 0.254 µM; in test [4] (setting [32]) it was 0.319 µM; in test [5] (setting [32]) it was 2.74 µM; in [6] (setting [32]) it was 17.7 µM.
On to SEILRTLGF, for which the dissociation constant (Kd) in test [1] (setting [33]) is 0.115 µM; in test [2] (setting [33]), 4.18 µM; in [3] (setting [33]) it was 0.0561 µM; in [4] (setting [33]) it was 0.0187 µM; in test [5] (setting [33]), 0.0373 µM; in test [6] (setting [33]) it was 7.59 µM.
Turning to FDAAASGGL, the Kd in test [1] (setting [34]) is at least 65.2 µM; in [2] (setting [34]) it was at least 28.5 µM; in test [3] (setting [34]), 3.02 µM; in test [4] (setting [34]), at least 77.9 µM; in test [5] (setting [34]) it was at least 78.1 µM; in test [6] (setting [34]), at least 32.2 µM.
On to EWAFWENKK, for which the IC50 (in general, the midpoint of a concentration-inhibition curve) in [7] is at least 183 µM; in test [8], 10.8 µM; in test [9], 15.3 µM.
For the sequence VMGVIGFGF, the Kd is at least 20 µM in test [10] (source organism: Choclo virus); at least 20 µM in test [11]; 2.19 µM in test [12]; at least 20 µM in test [13]; at least 20 µM in test [14] (source organism: Choclo virus); at least 20 µM in test [15]. Also, the Kd in test [16], in test [17], in test [18], in test [19], in [20] and in [21] was at least 20 µM throughout.
CLRIPMTDK displayed a dissociation constant (Kd) in [22] (source organism: Bacillus thuringiensis str. Al Hakam) of 0.0529 µM.
As to LLYDGSFAV, the dissociation constant (Kd) in [23] is at most 0.001 µM; in [24] (setting [35]), at most 0.001 µM; in test [10] (setting [35]) it was 0.002 µM; in test [25] it was 0.0043 µM.
Regarding AMLDRILHH, the dissociation constant (Kd) in test [22] (setting [36]) worked out at 0.0095 µM; in test [14] (setting [36]), 6.16 µM.
FEKMVSLLSV: the Kd came out at 0.145 µM in test [1] (setting [37]); 0.0252 µM in test [2] (setting [37]); 0.0237 µM in test [3] (setting [37]); 3.28 µM in [4] (setting [37]); 6.18 µM in [5] (setting [37]); 0.784 µM in test [6] (setting [37]).
On to FESYVRPFVA, for which the Kd is 0.982 µM in test [1] (setting [34]); 5.42 µM in [2] (setting [34]); 0.0199 µM in [3] (setting [34]); at least 70.2 µM in test [4] (setting [34]); at least 32 µM in test [5] (setting [34]); 0.151 µM in test [6] (setting [34]).
For the sequence SEAQMSIQL, the dissociation constant (Kd) in test [1] (setting [34]) turned out to be 1.1 µM; in [2] (setting [34]) it was 11.6 µM; in test [3] (setting [34]), 0.0153 µM; in test [4] (setting [34]), 0.161 µM; in test [5] (setting [34]), 0.0993 µM; in [6] (setting [34]), 0.542 µM.
As to SEAPNAKEEI, the Kd in test [1] (setting [37]) was at least 27.2 µM; in [2] (setting [37]), 1.18 µM; in test [3] (setting [37]) it was 3.35 µM; in test [4] (setting [37]), 0.105 µM; in [5] (setting [37]), 0.145 µM; in test [6] (setting [37]), 0.319 µM.
With RCYPGYTLK, in test [22] (source organism: Giardia lamblia ATCC 50803), the dissociation constant (Kd) stood at 0.0623 µM.
For FEEHLAPFMS, the Kd was 3.38 µM in [1] (setting [38]); 2.36 µM in [2] (setting [38]); 2.57 µM in test [3] (setting [38]); at least 47.4 µM in test [4] (setting [38]); at least 70.1 µM in test [5] (setting [38]); 8.78 µM in test [6] (setting [38]).
The sequence YMFESKRMK came in with a Kd in test [22] (source organism: Influenza A virus (A/swine/Finistere/127/99(H3N2))) of 0.0194 µM.
With FELTSMKYFV, the Kd in [1] (setting [37]) was at least 37.9 µM; in test [2] (setting [37]) it was 2.14 µM; in test [3] (setting [37]), 0.0242 µM; in [4] (setting [37]) it was 7.16 µM; in test [5] (setting [37]) it was 4.47 µM; in [6] (setting [37]), 7.78 µM.
In turn, VLRRGALAH registered a Kd in test [22] (source organism: Vibrio cholerae 2740-80) of 0.014 µM.
GERSRCYSL: the dissociation constant (Kd) in [1] (setting [38]) is at least 77.5 µM; in [2] (setting [38]), 3.38 µM; in test [3] (setting [38]) it was 0.0512 µM; in [4] (setting [38]), at least 77.9 µM; in test [5] (setting [38]), at least 78.1 µM; in test [6] (setting [38]) it was at least 77.7 µM.
PVDEYITTY: the Kd in [26] is 0.044 µM; in [24] (source organism: SARS-CoV1) it was at least 20 µM; in test [27] it was at least 77.8 µM; in test [28] it was at least 77.6 µM; in test [29], 10.8 µM; in [30], 0.544 µM. The dissociation constant (Kd) in test [31] is 1.48 µM.
As to VEAVMYMGT, the Kd in test [1] (setting [37]) is 2.47 µM; in [2] (setting [37]), at least 31.3 µM; in test [3] (setting [37]), 1.32 µM; in [4] (setting [37]), at least 21.9 µM; in test [5] (setting [37]), 6.51 µM; in test [6] (setting [37]) it was 0.616 µM.

For the origin of these results see the Immune Epitope Database (IEDB).
